Reference: US20080058263A1 (published 2008)

Key:
Assay in all cases: receptor-Fc IP
[1] = biological target: T1, VEGFR-3-Fc (UniProt P35916 25-328)
T1 construct: domain: first three Ig domains; conditioned supernatant of 293T cells; also called VEGFR-3-Fc fusion protein; not shown: Fc fragment of the pIg vector
T1 sequence (looked up): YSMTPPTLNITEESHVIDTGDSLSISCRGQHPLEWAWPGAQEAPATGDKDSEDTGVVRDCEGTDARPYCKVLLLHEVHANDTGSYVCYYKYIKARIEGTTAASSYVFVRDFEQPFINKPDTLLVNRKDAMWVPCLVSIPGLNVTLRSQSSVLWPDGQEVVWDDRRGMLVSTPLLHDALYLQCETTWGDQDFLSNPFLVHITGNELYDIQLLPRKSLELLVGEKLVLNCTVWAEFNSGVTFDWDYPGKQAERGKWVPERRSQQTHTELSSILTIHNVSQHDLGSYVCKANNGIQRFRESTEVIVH
In short: (§1)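 Binding of ligand from sample supernatant measured by pentahistidine-antibody immunoprecipitation. IP mix: PBS with 1.5% BSA, 0.06% Tween 20, 3 μg/ml heparin and 400 ng/ml fusion protein, added 1:2 to sample supernatant.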

[2] = biological target: T2, VEGFR-2-Fc (UniProt P35968 20-322)
T2 construct: domain: first 3 Ig domains; conditioned supernatant of 293T cells; also called VEGFR-2-Fc fusion protein; not shown: Fc fragment of the pIg vector
In short: as §1

[3] = biological target: T3, VEGFR-1-Fc (UniProt P17948 27-338)
T3 construct: domain: first three Ig domains; expressed in Drosophila S2 cells, purified on Protein A sepharose; also called VEGFR-1-Fc fusion protein; not shown: Fc fragment from the Signal-pIgPlus vector
In short: as §1

Measured: binding result

T2 sequence (P35968 20-322): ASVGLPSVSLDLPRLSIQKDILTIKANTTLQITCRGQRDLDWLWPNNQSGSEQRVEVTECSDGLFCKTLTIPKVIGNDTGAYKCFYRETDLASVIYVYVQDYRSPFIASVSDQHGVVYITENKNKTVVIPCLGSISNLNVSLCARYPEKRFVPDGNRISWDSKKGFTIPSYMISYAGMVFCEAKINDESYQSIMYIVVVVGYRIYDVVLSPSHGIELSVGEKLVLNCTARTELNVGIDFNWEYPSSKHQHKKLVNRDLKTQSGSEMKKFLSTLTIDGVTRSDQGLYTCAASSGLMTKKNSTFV
T3 sequence (P17948 27-338): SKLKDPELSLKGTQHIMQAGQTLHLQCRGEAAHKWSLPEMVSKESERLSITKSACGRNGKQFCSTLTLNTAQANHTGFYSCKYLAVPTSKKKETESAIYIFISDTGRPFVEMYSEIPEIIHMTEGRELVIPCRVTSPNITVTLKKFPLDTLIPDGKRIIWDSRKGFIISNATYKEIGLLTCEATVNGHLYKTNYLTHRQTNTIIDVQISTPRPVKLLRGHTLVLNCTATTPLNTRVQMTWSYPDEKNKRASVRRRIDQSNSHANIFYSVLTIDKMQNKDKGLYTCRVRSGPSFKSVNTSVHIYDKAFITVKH

B1: 14-13 (ligand)
chain: GQNHHEVVKFMDVYQRSYCHPIETLVDIFQEFGVATNTFFKPSCVPLMRCGGCCNDEGLECVPTEESNITMQIMRITVPLSQGPKPVTISFANHTSCRCMSKLD
no binding: [1] | [2] | [3]

B2: 14-15 (ligand)
chain: GQNHHEVVKFMDVYQRSYCHPIETLVDIFQEFGVATNTFFKPSCVPLMRCGGCCNSEGLQCVPTEESNITMQIMRITVPLSQGPKPVTISFANHTSCRCMSKLD
no binding: [1] | [2] | [3]

B3: 23-1 (ligand)
chain: AHYNTEILKSIDNEWRKTQCMPREVCIDVGKEYPDEIEYIFKPPCVSVYRCGGCCNDEGLECVPTEESNITMQIMRIKPHQGQHIGEMSFLQHNKCECRPKKD
no binding: [1] | [2] | [3]

B4: 23-3 (ligand)
chain: AHYNTEILKSIDNEWRKTQCMPREVCIDVGKEYPDEIEYIFKPPCVSVYRCGGCCNSEGLQCVPTEESNITMQIMRIKPHQGQHIGEMSFLQHNKCECRPKKD
no binding: [1] | [2] | [3]

B5: 31-4 (ligand)
chain: GQNHHEVVKSIDNEWRKTQCMPIETLVDIFQEYPDEIEYIFKPSCVPLMRCGGCCNDEGLECVPTEESNITMQIMRITVPLSQGPKPVTISFANHTSCRCMSKLD
no binding: [1] | [2] | [3]

B6: 23-7 (ligand)
chain: AHYNTEILKSIDNEWRKTQCMPREVCIDVGKEYPDEIEYIFKPPCVSVYRCGGCCNSEGLQCVPTEESNITMQIMRIKPHQGQHIGEMSFANHTSCRCMSKLD
no binding: [1] | [2] | [3]

B7: 23-13 (ligand)
chain: AHYNTEILKSIDNEWRKTQCMPREVCIDVGKEYPDEIEYIFKPPCVSVYRCGGCCNDEGLECVPTEESNITMQIMRITVPLSQGPKPVTISFANHTSCRCMSKLD
no binding: [1] | [2] | [3]

B8: 23-15 (ligand)
chain: AHYNTEILKSIDNEWRKTQCMPREVCIDVGKEYPDEIEYIFKPPCVSVYRCGGCCNSEGLQCVPTEESNITMQIMRITVPLSQGPKPVTISFANHTSCRCMSKLD
no binding: [1] | [2] | [3]

B9: 33-2 (ligand)
chain: GQNHHEVVKSIDNEWRKTQCMPIETLVDIFQEYPDEIEYIFKPPCVSVYRCGGCCNDEGLECMNTSTSYLSKTLFEIKPHQGQHIGEMSFLQHNKCECRPKKD
no binding: [1] | [2] | [3]

B10: 33-4 (ligand)
chain: GQNHHEVVKSIDNEWRKTQCMPIETLVDIFQEYPDEIEYIFKPPCVSVYRCGGCCNSEGLQCMNTSTSYLSKTLFEIKPHQGQHIGEMSFLQHNKCECRPKKD
no binding: [1] | [2] | [3]

B11: 33-5 (ligand)
chain: GQNHHEVVKSIDNEWRKTQCMPIETLVDIFQEYPDEIEYIFKPPCVSVYRCGGCCNDEGLECVPTEESNITMQIMRIKPHQGQHIGEMSFANHTSCRCMSKLD
no binding: [1] | [2] | [3]

B12: 33-6 (ligand)
chain: GQNHHEVVKSIDNEWRKTQCMPIETLVDIFQEYPDEIEYIFKPPCVSVYRCGGCCNDEGLECMNTSTSYLSKTLFEIKPHQGQHIGEMSFANHTSCRCMSKLD
no binding: [1] | [2] | [3]

B13: 33-7 (ligand)
chain: GQNHHEVVKSIDNEWRKTQCMPIETLVDIFQEYPDEIEYIFKPPCVSVYRCGGCCNSEGLQCVPTEESNITMQIMRIKPHQGQHIGEMSFANHTSCRCMSKLD
no binding: [1] | [2] | [3]

B14: 33-8 (ligand)
chain: GQNHHEVVKSIDNEWRKTQCMPIETLVDIFQEYPDEIEYIFKPPCVSVYRCGGCCNSEGLQCMNTSTSYLSKTLFEIKPHQGQHIGEMSFANHTSCRCMSKLD
no binding: [1] | [2] | [3]

B15: 33-13 (ligand)
chain: GQNHHEVVKSIDNEWRKTQCMPIETLVDIFQEYPDEIEYIFKPPCVSVYRCGGCCNDEGLECVPTEESNITMQIMRITVPLSQGPKPVTISFANHTSCRCMSKLD
no binding: [1] | [2] | [3]

B16: 21-1 (ligand)
chain: AHYNTEILKSIDNEWRKTQCMPREVCIDVGKEYPDEIEYIFKPSCVPLMRCGGCCNDEGLECVPTEESNITMQIMRIKPHQGQHIGEMSFLQHNKCECRPKKD
no binding: [1] | [2] | [3]

B17: 33-14 (ligand)
chain: GQNHHEVVKSIDNEWRKTQCMPIETLVDIFQEYPDEIEYIFKPPCVSVYRCGGCCNDEGLECMNTSTSYLSKTLFEITVPLSQGPKPVTISFANHTSCRCMSKLD
no binding: [1] | [2] | [3]

B18: 33-15 (ligand)
chain: GQNHHEVVKSIDNEWRKTQCMPIETLVDIFQEYPDEIEYIFKPPCVSVYRCGGCCNSEGLQCVPTEESNITMQIMRITVPLSQGPKPVTISFANHTSCRCMSKLD
no binding: [1] | [2] | [3]

B19: 33-16 (ligand)
chain: GQNHHEVVKSIDNEWRKTQCMPIETLVDIFQEYPDEIEYIFKPPCVSVYRCGGCCNSEGLQCMNTSTSYLSKTLFEITVPLSQGPKPVTISFANHTSCRCMSKLD
no binding: [1] | [2] | [3]

B20: 34-1 (ligand)
chain: GQNHHEVVKSIDNEWRKTQCMPIETLVDIFQEFGVATNTFFKPSCVPLMRCGGCCNDEGLECVPTEESNITMQIMRIKPHQGQHIGEMSFLQHNKCECRPKKD
no binding: [1] | [2] | [3]

B21: 34-3 (ligand)
chain: GQNHHEVVKSIDNEWRKTQCMPIETLVDIFQEFGVATNTFFKPSCVPLMRCGGCCNSEGLQCVPTEESNITMQIMRIKPHQGQHIGEMSFLQHNKCECRPKKD
no binding: [1] | [2] | [3]

B22: 34-5 (ligand)
chain: GQNHHEVVKSIDNEWRKTQCMPIETLVDIFQEFGVATNTFFKPSCVPLMRCGGCCNDEGLECVPTEESNITMQIMRIKPHQGQHIGEMSFANHTSCRCMSKLD
no binding: [1] | [2] | [3]

B23: 34-7 (ligand)
chain: GQNHHEVVKSIDNEWRKTQCMPIETLVDIFQEFGVATNTFFKPSCVPLMRCGGCCNSEGLQCVPTEESNITMQIMRIKPHQGQHIGEMSFANHTSCRCMSKLD
no binding: [1] | [2] | [3]

B24: 34-11 (ligand)
chain: GQNHHEVVKSIDNEWRKTQCMPIETLVDIFQEFGVATNTFFKPSCVPLMRCGGCCNSEGLQCVPTEESNITMQIMRITVPLSQGPKPVTISFLQHNKCECRPKKD
no binding: [1] | [2] | [3]

B25: 34-13 (ligand)
chain: GQNHHEVVKSIDNEWRKTQCMPIETLVDIFQEFGVATNTFFKPSCVPLMRCGGCCNDEGLECVPTEESNITMQIMRITVPLSQGPKPVTISFANHTSCRCMSKLD
no binding: [1] | [2] | [3]
